Results reported in US20110195022A1 (IMMUNOGEN, published 2011).
Several values for one entry are separate records, joined by “and”; a condition that tells them apart may be missing. Equal entries are not always repeated. Where two headings read alike, the source gives them in different places.

T1: human CD20 (human, UniProt P11836 1-297)
T1 sequence (looked up): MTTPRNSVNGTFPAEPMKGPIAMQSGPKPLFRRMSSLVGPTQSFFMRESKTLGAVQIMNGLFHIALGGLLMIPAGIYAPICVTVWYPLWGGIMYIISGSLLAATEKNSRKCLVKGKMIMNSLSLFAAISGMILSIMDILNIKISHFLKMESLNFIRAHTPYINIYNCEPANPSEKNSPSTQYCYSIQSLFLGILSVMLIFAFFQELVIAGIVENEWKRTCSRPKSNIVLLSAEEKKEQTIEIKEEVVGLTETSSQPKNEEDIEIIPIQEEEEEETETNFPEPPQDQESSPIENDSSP

T2: CD20-A170S P172S variant (human, UniProt P11836 1-297)
T2 construct: whole, on cells; also called CD20-AP; CD20AP
T2 sequence (looked up): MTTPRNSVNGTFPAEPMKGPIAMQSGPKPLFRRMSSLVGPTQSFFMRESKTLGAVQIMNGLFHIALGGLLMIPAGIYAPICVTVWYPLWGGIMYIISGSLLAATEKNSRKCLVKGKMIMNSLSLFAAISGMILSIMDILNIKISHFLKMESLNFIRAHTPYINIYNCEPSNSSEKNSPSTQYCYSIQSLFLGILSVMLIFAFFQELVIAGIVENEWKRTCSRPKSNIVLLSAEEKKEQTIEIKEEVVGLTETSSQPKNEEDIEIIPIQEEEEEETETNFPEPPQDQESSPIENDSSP


Key:
human CD20 [1] = target: T1, human CD20; test: cell-based or functional assay
human CD20 [2] = target: T1, human CD20; test: flow cytometry titration on BJAB cells, apparent Kd from the dose-response curve
Description: (§1) Data analysis was performed using CellQuest Pro (BD Biosciences, San Diego, US) and for each sample the mean fluorescence intensity for FL1 (MFI) was exported and plotted against the antibody concentration in a semi-log plot.
The value for the apparent dissociation constant (Kd) of each antibody was calculated using GraphPad Prism v4 (GraphPad software, San Diego, Calif.).

human CD20 [3] = target: T1, human CD20; test: flow cytometry, 300-19 cells transfected with wild type human CD20, MFI against antibody concentration
human CD20 [4] = target: T1, human CD20; test: flow cytometry titration on BJAB cells, apparent Kd from the binding curve
Description: as §1

human CD20 [5] = target: T1, human CD20; test: flow cytometry, BJAB cells, MFI against antibody concentration
Description: as §1

CD20-A170S P172S variant [6] = target: T2, CD20-A170S P172S variant; test: flow cytometry, 300-19 cells transfected with CD20-A170S P172S, MFI against antibody concentration
human CD20 [7] = target: T1, human CD20; test: cell-based or functional assay; remark: listed apart in the source
CD20-A170S P172S variant [8] = target: T2, CD20-A170S P172S variant; test: flow cytometry, 300-19 cells transfected with CD20-A170S P172S, MFI against antibody concentration; remark: listed apart in the source

Row | Binder | EC50 of ADCC, Granta-519 cells, human NK cells, LDH release (human CD20 [1]) | EC50 of ADCC, SU-DHL-4 cells, human NK cells, LDH release (human CD20 [1]) [ng/mL] | EC50 of CDC, Daudi cells, 5% human complement (human CD20 [1]) | EC50 of CDC, WSU-DLCL-2 cells, 5% human complement (human CD20 [1]) | Kd (human CD20 [2]) [nM] | EC50 of in vitro cytotoxicity (WST-8), Daudi cells (human CD20 [1]) [nM] | EC50 of in vitro cytotoxicity (WST-8), Ramos cells (human CD20 [1]) | Kd (human CD20 [4]) [nM] | other results
1 | rituximab (antibody, V domains shown) VH: QVQLQQPGAELVKPGASVKMSCKASGYTFTSYNMHWVKQTPGRGLEWIGAIYPGNGDTSYNQKFKGKATLTADKSSSTAYMQLSSLTSEDSAVYYCARSTYYGGDWYFNVWGAGTTVTVSA VL: QIVLSQSPAILSASPGEKVTMTCRASSSVSYIHWFQQKPGSSPKPWIYATSNLASGVPVRFSGSGSGTSYSLTISRVEAEDAATYYCQQWTSNPPTFGGGTKLEIK | 1.23 ng/mL | 0.53 | 0.3 µg/mL | 0.35 µg/mL and 0.19 µg/mL |  |  |  |  | EC50 of ADCC, DOHH-2 cells, human NK cells, LDH release (human CD20 [1]): 1.08 ng/mL; EC50 of ADCC, JVM-13 cells, human NK cells, LDH release (human CD20 [1]): 0.29 ng/mL; EC50 of ADCC, Ramos cells, human NK cells, LDH release (human CD20 [1]): 3.5 ng/mL; EC50 of CDC, Raji cells, 5% human complement (human CD20 [1]): 0.11 µg/mL; EC50 of CDC, Ramos cells, 5% human complement (human CD20 [1]): 0.06 µg/mL; EC50 of CDC, SU-DHL-4 cells, 5% human complement (human CD20 [1]): 0.31 µg/mL
2 | chCD20-20 (antibody, V domains shown, Chimeric antibody: murine CD20-20 variable regions with human constant regions (equivalent plasmids to chCD20-4), expressed in HEK-293T; the murine VL/VH entries 7 and 8 are used; also called chimeric CD20-20) VH: QVQLQQSGAELARPGASVKLSCKASGYTFTSYWMHWVKQRPGQGLEWIGAIYPGDGDTRYTQKFKGKATLTADKSSYTAYMQLSSLASEDSAVYYCARSPDFYGSGYDFDYWGQGTTLTVSS VL: DIKMTQSPSSMYTSLGERVTITCKASQDINSFLSWFQQKPGKSPKTLIYRAYRLVDGVPSRFSGSGSGQDYSLTISSLEFEDMGIYYCLQSGAFPLTFGAGTKLELKR |  |  |  | 0.084 µg/mL | 0.42 |  |  |  | EC50 (read off the curve) (human CD20 [3]): ~700 pM
3 | muCD20-20 (antibody, mouse IgG1, kappa, V domains shown, Murine monoclonal antibody purified from hybridoma supernatant; also called murine CD20-20) VH: QVQLQQSGAELARPGASVKLSCKASGYTFTSYWMHWVKQRPGQGLEWIGAIYPGDGDTRYTQKFKGKATLTADKSSYTAYMQLSSLASEDSAVYYCARSPDFYGSGYDFDYWGQGTTLTVSS VL: DIKMTQSPSSMYTSLGERVTITCKASQDINSFLSWFQQKPGKSPKTLIYRAYRLVDGVPSRFSGSGSGQDYSLTISSLEFEDMGIYYCLQSGAFPLTFGAGTKLELKR |  |  |  |  | 0.59 |  |  |  | 
4 | chCD20-4 (antibody, V domains shown, Chimeric antibody: murine CD20-4 variable regions cloned in frame with human constant regions (plasmids pchCD20-4HCN and pchCD20-4LCZ), expressed in HEK-293T; the murine VL/VH entries 5 and 6 are used; a huIgG1 isotype control was used beside it; also called chimeric CD20-4) VH: EVKVEESGGGLVKTGGSMKLSCVASGFSFNNYWMNWVRQSPEKGLEWVAEIRLKSNNYATHYVESVKGRFTISRDDSKSSVYLQMNNLRAEDTGIYYCTGWDDYAMDHWGQGISVTVSS VL: DIVMTQSQKFMSTSVGDRVSVNCKASQNVGTNVAWYQQKPRQSPKGLIYSASFRYSGVPDRFTGSGSGTDFTLTIFNVQSDDLAEYFCQQYNNYPLTFGGGTKLEIKR |  |  |  | 0.027 µg/mL | 0.47 |  |  |  | 
5 | huCD20-4-SPDB-DM4 (antibody, human IgG1, kappa, V domains shown, DM4 linked through SPDB (disulfide), 3.5-4 DM4 molecules per antibody; sites not stated) VH: EVQVEESGGGLVQPGGSMRLSCVASGFSFNNYWMNWVRQSPGKGLEWVAEIRLKSNNYATHYVDSVKGRFTISRDDSKSSVYLQMNNLRAEDTGIYYCTGWDDYAMDHWGQGISVTVSS VL: DIQMTQSPSTMSTSVGDRVSVNCKASQNVGTNVAWYQQKPGKSPKGLIYSASFRYSGVPSRFTGSGSGTDFTLTIFNVQPDDLAEYFCQQYNNYPLTFGGGTKLEIKR |  |  |  | ~0.04 µg/mL |  | 0.19 | 0.39 nM |  | 
6 | huCD20-4 (antibody, human IgG1, kappa, V domains shown, Resurfaced antibody expressed in HEK-293T cells; also called humanized CD20-4; resurfaced CD20-4) VH: EVQVEESGGGLVQPGGSMRLSCVASGFSFNNYWMNWVRQSPGKGLEWVAEIRLKSNNYATHYVDSVKGRFTISRDDSKSSVYLQMNNLRAEDTGIYYCTGWDDYAMDHWGQGISVTVSS VL: DIQMTQSPSTMSTSVGDRVSVNCKASQNVGTNVAWYQQKPGKSPKGLIYSASFRYSGVPSRFTGSGSGTDFTLTIFNVQPDDLAEYFCQQYNNYPLTFGGGTKLEIKR | 0.28 ng/mL and 0.29 ng/mL | 0.2 | 0.05 µg/mL and ~0.05 µg/mL | ~0.04 µg/mL | 0.46 |  |  | 1 | EC50 of ADCC, DOHH-2 cells, human NK cells, LDH release (human CD20 [1]): 0.57 ng/mL; EC50 of ADCC, JVM-13 cells, human NK cells, LDH release (human CD20 [1]): 0.097 ng/mL; EC50 of ADCC, Ramos cells, human NK cells, LDH release (human CD20 [1]): 0.4 ng/mL; EC50 of ADCC, WSU-DLCL-2 cells, human NK cells, LDH release (human CD20 [1]): 0.4 ng/mL; EC50 of CDC, Raji cells, 5% human complement (human CD20 [1]): 0.032 µg/mL; EC50 of CDC, Ramos cells, 5% human complement (human CD20 [1]): 0.01 µg/mL; EC50 of CDC, SU-DHL-4 cells, 5% human complement (human CD20 [1]): 0.03 µg/mL; EC50 (read off the curve) (human CD20 [5]): ~600 pM; EC50 (read off the curve) (human CD20 [3]): ~1000 pM; binding result (CD20-A170S P172S variant [6]): no binding (tested: 1e-7 M)
7 | muCD20-4 (antibody, mouse IgG2a, kappa, V domains shown, Murine monoclonal antibody purified from hybridoma supernatant (ATCC PTA-10485 or PTA-10561); also called murine CD20-4) VH: EVKVEESGGGLVKTGGSMKLSCVASGFSFNNYWMNWVRQSPEKGLEWVAEIRLKSNNYATHYVESVKGRFTISRDDSKSSVYLQMNNLRAEDTGIYYCTGWDDYAMDHWGQGISVTVSS VL: DIVMTQSQKFMSTSVGDRVSVNCKASQNVGTNVAWYQQKPRQSPKGLIYSASFRYSGVPDRFTGSGSGTDFTLTIFNVQSDDLAEYFCQQYNNYPLTFGGGTKLEIKR |  |  |  |  | 0.97 |  |  |  | 
8 | huCD20-4-SMCC-DM1 (antibody, human IgG1, kappa, V domains shown, DM1 linked through SMCC (thioether), 3.5-4 DM1 molecules per antibody; sites not stated, also called huCD20-4-MCC-DM1) VH: EVQVEESGGGLVQPGGSMRLSCVASGFSFNNYWMNWVRQSPGKGLEWVAEIRLKSNNYATHYVDSVKGRFTISRDDSKSSVYLQMNNLRAEDTGIYYCTGWDDYAMDHWGQGISVTVSS VL: DIQMTQSPSTMSTSVGDRVSVNCKASQNVGTNVAWYQQKPGKSPKGLIYSASFRYSGVPSRFTGSGSGTDFTLTIFNVQPDDLAEYFCQQYNNYPLTFGGGTKLEIKR | 0.28 ng/mL | 0.27 | ~0.08 µg/mL | ~0.04 µg/mL |  | 0.21 | 0.22 nM and 0.35 nM | 0.9 | EC50 of in vitro cytotoxicity (WST-8), DOHH-2 cells (human CD20 [7]): 0.11 nM; EC50 of in vitro cytotoxicity (WST-8), Daudi cells (human CD20 [7]): 0.29 nM; EC50 of in vitro cytotoxicity (WST-8), Granta-519 cells (human CD20 [7]): 0.03 nM; EC50 of in vitro cytotoxicity (WST-8), Ramos cells (human CD20 [7]): 0.54 nM; EC50 of in vitro cytotoxicity (WST-8), SC-1 cells (human CD20 [7]): 0.6 nM
9 | huCD20-4-SPP-DM1 (antibody, human IgG1, kappa, V domains shown, DM1 linked through SPP (disulfide), 3.5-4 DM1 molecules per antibody; sites not stated) VH: EVQVEESGGGLVQPGGSMRLSCVASGFSFNNYWMNWVRQSPGKGLEWVAEIRLKSNNYATHYVDSVKGRFTISRDDSKSSVYLQMNNLRAEDTGIYYCTGWDDYAMDHWGQGISVTVSS VL: DIQMTQSPSTMSTSVGDRVSVNCKASQNVGTNVAWYQQKPGKSPKGLIYSASFRYSGVPSRFTGSGSGTDFTLTIFNVQPDDLAEYFCQQYNNYPLTFGGGTKLEIKR |  |  |  |  |  | 0.4 | 0.35 nM | 1.5 | 
10 | 2F2 (antibody, V domains shown) VH: EVQLVESGGGLVQPGRSLRLSCAASGFTFNDYAMHWVRQAPGKGLEWVSTISWNSGSIGYADSVKGRFTISRDNAKKSLYLQMNSLRAEDTALYYCAKDIQYGNYYYGMDVWGQGTTVTVSS VL: EIVLTQSPATLSLSPGERATLSCRASQSVSSYLAWYQQKPGQAPRLLIYDASNRATGIPARFSGSGSGTDFTLTISSLEPEDFAVYYCQQRSNWPITFGQGTRLEIK |  |  |  |  |  |  |  |  | EC50 (read off the curve) (CD20-A170S P172S variant [8]): ~4 nM; EC50 (read off the curve) (CD20-A170S P172S variant [6]): ~2 nM
